# T1: TNFR1 (Homo sapiens, UniProt P19438)
# T1 chain: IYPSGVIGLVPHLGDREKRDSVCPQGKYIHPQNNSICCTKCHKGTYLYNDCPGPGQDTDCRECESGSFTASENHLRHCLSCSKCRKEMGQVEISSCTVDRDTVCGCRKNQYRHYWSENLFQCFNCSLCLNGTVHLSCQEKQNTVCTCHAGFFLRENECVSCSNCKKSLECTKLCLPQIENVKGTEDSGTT
# Target: T1, TNFR1
# Assay: yeast display SC50
row,Binder,apparent Kd (screen) [nM]
1,R66D (designed binder) SMEEEVEKAAKEYEKKKKEAIEKHLEKLKAKDKEAAERFLKELEEAAKEYAKDEAKTMSEEEAKRDAKKYKEKVLLSELSEEEQKEIKEAEEKLVRTILKYVEEAAK,0.593
2,K27S (designed binder) SMEEEVEKAAKEYEKKKKEAIEKHLESLKAKDKEAAERFLKELEEAAKEYAKDEAKTMSEEEAKRRAKKYKEKVLLSELSEEEQKEIKEAEEKLVRTILKYVEEAAK,0.869
3,E45M (designed binder) SMEEEVEKAAKEYEKKKKEAIEKHLEKLKAKDKEAAERFLKELEMAAKEYAKDEAKTMSEEEAKRRAKKYKEKVLLSELSEEEQKEIKEAEEKLVRTILKYVEEAAK,1.69
4,E91R (designed binder) SMEEEVEKAAKEYEKKKKEAIEKHLEKLKAKDKEAAERFLKELEEAAKEYAKDEAKTMSEEEAKRRAKKYKEKVLLSELSEEEQKEIKEAREKLVRTILKYVEEAAK,6.43
5,Y13F (designed binder) SMEEEVEKAAKEFEKKKKEAIEKHLEKLKAKDKEAAERFLKELEEAAKEYAKDEAKTMSEEEAKRRAKKYKEKVLLSELSEEEQKEIKEAEEKLVRTILKYVEEAAK,0.446
6,D32C (designed binder) SMEEEVEKAAKEYEKKKKEAIEKHLEKLKAKCKEAAERFLKELEEAAKEYAKDEAKTMSEEEAKRRAKKYKEKVLLSELSEEEQKEIKEAEEKLVRTILKYVEEAAK,3
7,V95L (designed binder) SMEEEVEKAAKEYEKKKKEAIEKHLEKLKAKDKEAAERFLKELEEAAKEYAKDEAKTMSEEEAKRRAKKYKEKVLLSELSEEEQKEIKEAEEKLLRTILKYVEEAAK,7.07
8,L25T (designed binder) SMEEEVEKAAKEYEKKKKEAIEKHTEKLKAKDKEAAERFLKELEEAAKEYAKDEAKTMSEEEAKRRAKKYKEKVLLSELSEEEQKEIKEAEEKLVRTILKYVEEAAK,1.86
9,A63Y (designed binder) SMEEEVEKAAKEYEKKKKEAIEKHLEKLKAKDKEAAERFLKELEEAAKEYAKDEAKTMSEEEYKRRAKKYKEKVLLSELSEEEQKEIKEAEEKLVRTILKYVEEAAK,12.5
10,E61S (designed binder) SMEEEVEKAAKEYEKKKKEAIEKHLEKLKAKDKEAAERFLKELEEAAKEYAKDEAKTMSESEAKRRAKKYKEKVLLSELSEEEQKEIKEAEEKLVRTILKYVEEAAK,1.4
11,L40T (designed binder) SMEEEVEKAAKEYEKKKKEAIEKHLEKLKAKDKEAAERFTKELEEAAKEYAKDEAKTMSEEEAKRRAKKYKEKVLLSELSEEEQKEIKEAEEKLVRTILKYVEEAAK,0.718
12,A105N (designed binder) SMEEEVEKAAKEYEKKKKEAIEKHLEKLKAKDKEAAERFLKELEEAAKEYAKDEAKTMSEEEAKRRAKKYKEKVLLSELSEEEQKEIKEAEEKLVRTILKYVEENAK,1.86
13,E81W (designed binder) SMEEEVEKAAKEYEKKKKEAIEKHLEKLKAKDKEAAERFLKELEEAAKEYAKDEAKTMSEEEAKRRAKKYKEKVLLSELSWEEQKEIKEAEEKLVRTILKYVEEAAK,0.304
14,K17T (designed binder) SMEEEVEKAAKEYEKKTKEAIEKHLEKLKAKDKEAAERFLKELEEAAKEYAKDEAKTMSEEEAKRRAKKYKEKVLLSELSEEEQKEIKEAEEKLVRTILKYVEEAAK,1.05
15,A105D (designed binder) SMEEEVEKAAKEYEKKKKEAIEKHLEKLKAKDKEAAERFLKELEEAAKEYAKDEAKTMSEEEAKRRAKKYKEKVLLSELSEEEQKEIKEAEEKLVRTILKYVEEDAK,0.446
16,L28G (designed binder) SMEEEVEKAAKEYEKKKKEAIEKHLEKGKAKDKEAAERFLKELEEAAKEYAKDEAKTMSEEEAKRRAKKYKEKVLLSELSEEEQKEIKEAEEKLVRTILKYVEEAAK,1.4
17,M2R (designed binder) SREEEVEKAAKEYEKKKKEAIEKHLEKLKAKDKEAAERFLKELEEAAKEYAKDEAKTMSEEEAKRRAKKYKEKVLLSELSEEEQKEIKEAEEKLVRTILKYVEEAAK,0.539

row,Binder,apparent Kd (screen) [nM]
1,K52G (designed binder) SMEEEVEKAAKEYEKKKKEAIEKHLEKLKAKDKEAAERFLKELEEAAKEYAGDEAKTMSEEEAKRRAKKYKEKVLLSELSEEEQKEIKEAEEKLVRTILKYVEEAAK,0.869
2,E104V (designed binder) SMEEEVEKAAKEYEKKKKEAIEKHLEKLKAKDKEAAERFLKELEEAAKEYAKDEAKTMSEEEAKRRAKKYKEKVLLSELSEEEQKEIKEAEEKLVRTILKYVEVAAK,0.446
3,L75Y (designed binder) SMEEEVEKAAKEYEKKKKEAIEKHLEKLKAKDKEAAERFLKELEEAAKEYAKDEAKTMSEEEAKRRAKKYKEKVYLSELSEEEQKEIKEAEEKLVRTILKYVEEAAK,1.86
4,K8F (designed binder) SMEEEVEFAAKEYEKKKKEAIEKHLEKLKAKDKEAAERFLKELEEAAKEYAKDEAKTMSEEEAKRRAKKYKEKVLLSELSEEEQKEIKEAEEKLVRTILKYVEEAAK,0.539
5,K64Y (designed binder) SMEEEVEKAAKEYEKKKKEAIEKHLEKLKAKDKEAAERFLKELEEAAKEYAKDEAKTMSEEEAYRRAKKYKEKVLLSELSEEEQKEIKEAEEKLVRTILKYVEEAAK,0.446
6,K27V (designed binder) SMEEEVEKAAKEYEKKKKEAIEKHLEVLKAKDKEAAERFLKELEEAAKEYAKDEAKTMSEEEAKRRAKKYKEKVLLSELSEEEQKEIKEAEEKLVRTILKYVEEAAK,0.956
7,E103W (designed binder) SMEEEVEKAAKEYEKKKKEAIEKHLEKLKAKDKEAAERFLKELEEAAKEYAKDEAKTMSEEEAKRRAKKYKEKVLLSELSEEEQKEIKEAEEKLVRTILKYVWEAAK,0.869
8,A9T (designed binder) SMEEEVEKTAKEYEKKKKEAIEKHLEKLKAKDKEAAERFLKELEEAAKEYAKDEAKTMSEEEAKRRAKKYKEKVLLSELSEEEQKEIKEAEEKLVRTILKYVEEAAK,0.446
9,A10Q (designed binder) SMEEEVEKAQKEYEKKKKEAIEKHLEKLKAKDKEAAERFLKELEEAAKEYAKDEAKTMSEEEAKRRAKKYKEKVLLSELSEEEQKEIKEAEEKLVRTILKYVEEAAK,1.4
10,D53Y (designed binder) SMEEEVEKAAKEYEKKKKEAIEKHLEKLKAKDKEAAERFLKELEEAAKEYAKYEAKTMSEEEAKRRAKKYKEKVLLSELSEEEQKEIKEAEEKLVRTILKYVEEAAK,2.73
11,E82I (designed binder) SMEEEVEKAAKEYEKKKKEAIEKHLEKLKAKDKEAAERFLKELEEAAKEYAKDEAKTMSEEEAKRRAKKYKEKVLLSELSEIEQKEIKEAEEKLVRTILKYVEEAAK,0.49
12,L94F (designed binder) SMEEEVEKAAKEYEKKKKEAIEKHLEKLKAKDKEAAERFLKELEEAAKEYAKDEAKTMSEEEAKRRAKKYKEKVLLSELSEEEQKEIKEAEEKFVRTILKYVEEAAK,0.446
13,E5I (designed binder) SMEEIVEKAAKEYEKKKKEAIEKHLEKLKAKDKEAAERFLKELEEAAKEYAKDEAKTMSEEEAKRRAKKYKEKVLLSELSEEEQKEIKEAEEKLVRTILKYVEEAAK,0.653
14,E49T (designed binder) SMEEEVEKAAKEYEKKKKEAIEKHLEKLKAKDKEAAERFLKELEEAAKTYAKDEAKTMSEEEAKRRAKKYKEKVLLSELSEEEQKEIKEAEEKLVRTILKYVEEAAK,2.73
15,K18Q (designed binder) SMEEEVEKAAKEYEKKKQEAIEKHLEKLKAKDKEAAERFLKELEEAAKEYAKDEAKTMSEEEAKRRAKKYKEKVLLSELSEEEQKEIKEAEEKLVRTILKYVEEAAK,1.4
16,L79C (designed binder) SMEEEVEKAAKEYEKKKKEAIEKHLEKLKAKDKEAAERFLKELEEAAKEYAKDEAKTMSEEEAKRRAKKYKEKVLLSECSEEEQKEIKEAEEKLVRTILKYVEEAAK,1.86

# — publication PMC12416549 (2024)
